{
  "source": "patent US20250152742A1",
  "about": "“COMPOSITIONS AND METHODS FOR NEUROLOGICAL DISEASES” (Trames Bio, Inc., priority 2022, published 2025)",
  "format_in_all_cases": "cell-based",
  "key": {"[1]": {"system": "engineered chimeric receptor SEQ ID NO: 33 and its mutants (human α7-nAChR ligand binding domain / human GlyRα1 ion pore domain) in Lenti-X 293T cells", "test": "YFP fluorescence quenching anion reporter plate reader assay (percent quench, EC50)", "details": "for YFP fluorescence quenching using CNL001 (percent quench): receptor named in row; for YFP fluorescence quenching using Varenicline, 3 nM var: ligand Varenicline 3 nM; for YFP fluorescence quenching using Varenicline, 30 nM var: ligand Varenicline 30 nM; for YFP fluorescence quenching using Varenicline, 300 nM var: ligand Varenicline 300 nM; for YFP fluorescence quenching using Varenicline, 500 nM var: ligand Varenicline 500 nM; for YFP fluorescence quenching using Varenicline, 1 uM var: ligand Varenicline 1 uM", "outline": "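Percent quench compares mean YFP signal over the final 10 s with the 15 s baseline before ligand, added in iodide-containing extracellular solution (pH 7.2). Cells were LX293T carrying a YFP anion reporter, transiently transfected with the channel construct; plates were preincubated 30 min at 37 °C.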"}, "rat hippocampal neurons [2]": {"system": "rat hippocampal neurons", "test": "Evoked rheobase shift, rat hippocampal neurons (current clamp)", "description": "No holding current was applied to the membrane for cells included in the final datasets. Data acquisition settings and analysis methods were the same as for the DRG rheobase experiments.\nHippocampal neurons: Hippocampal rheobase experiments were performed in current clamp mode using a potassium-based internal solution containing (in mM): 115 potassium D-gluconate (G4500), 13 potassium chloride (P9333), 1 magnesium chloride hexahydrate (M2670), 5 magnesium ATP (A9187), 10 HEPES (54457), and 0.5 EGTA (3777) (pH=7.2 with potassium hydroxide, osmolarity=290-295 mOsm, calculated liquid junction potential=−14.9 mV. NBQX (10 μM) and AP5 (50 μM) were included in the bath to block excitatory synaptic transmission. To measure HC input resistance and rheobase, 500 ms current steps (−200 pA to 700 pA) were applied the membrane in the presence and absence of a compound. No holding current was applied to the membrane for cells included in the final datasets. Data acquisition settings and analysis methods were the same as for the DRG rheobase experiments."}, "rat hippocampal neurons [3]": {"system": "rat hippocampal neurons", "test": "Spontaneous action potential firing rate, hippocampal neurons (current clamp)", "description": "Spontaneous activity was recorded in gapfree mode, in the presence and absence of a compound. Data were acquired at 10 kHz, with Bessel filter at 2 kHz and series resistance compensation at 100%. No holding current was applied to the membrane. […] For Clampfit, threshold-based event detection was run separately for each epoch to detect action potentials. For the custom Python code, a peak-finding package was used to automatically detect action potentials (SciPy). For both methods, minimum height, average height, maximum height were measured and frequency was calculated as the number of events in the epoch divided by the length of time of the epoch. For Clampfit, the resting membrane potential was measured at 3 points between events and averaged for each epoch. […] For both methods, membrane potential was corrected for the calculated liquid junction potential. […]\nHippocampal spontaneous action potential experiments: Hippocampal spontaneous action potentials were recorded in current clamp mode using a potassium-based internal solution containing (in mM): 115 potassium D-gluconate (G4500), 13 potassium chloride (P9333), 1 magnesium chloride hexahydrate (M2670), 5 magnesium ATP (A9187), 10 HEPES (54457), and 0.5 EGTA (3777) (pH=7.2, osmolarity=290-295 mOsm, calculated liquid junction potential=−14.9 mV). Spontaneous activity was recorded in gapfree mode, in the presence and absence of a compound. […]"}},
  "data": [
    {"molecule": "CODA1140: engineered receptor: R101F, L131N, S172D in SEQ ID NO: 33 (protein, synthetic sequence of chimeric LGIC) MRCSPGGVWLALAASLLHVSLQGEFQRKLYKELVKNYNPLERPVANDSQPLTVYFSLSLLQIMDVDEKNQVLTTNIWLQMSWTDHYLQWNVSEYPGVKTVFFPDGQIWKPDILLYNSADERFDATFHTNVNVNSSGHCQYLPPGIFKSSCPMDLKNFPMDVQTCKLKFGSWDYGGWSLDLQMQEADISGYIPNGEWDLVGIPGKRSERFYECCKEPYPDVTFTVTMRRRMGYYLIQMYIPSLLIVILSWISFWINMDAAPARVGLGITTVLTMTTQSSGSRASLPKVSYVKAIDIWMAVCLLFVFSALLEYAAVNFVSRQHKELLRFRRKRRHHKSPMLNLFQEDEAGEGRFNFSAYGMGPACLQAKDGISVKGANNSNTTNPPPAPSKSPEEMRKLFIQRAKKIDKISRIGFPMAFLIFNMFYWIIYKIVRREDVHNQ", "values": [
      {"measurement": "YFP fluorescence quenching using CNL001 (percent quench)", "setting": "[1]; 1 nM CNL001, first column so headed", "value": 52.592, "unit": "%"},
      {"measurement": "YFP fluorescence quenching using CNL001 (percent quench)", "setting": "[1]; 1 nM CNL001, second column so headed", "value": 61.248, "unit": "%"},
      {"measurement": "YFP fluorescence quenching (percent quench)", "setting": "[1]; 1 nM CNL002", "value": 0.337, "unit": "%"},
      {"measurement": "YFP fluorescence quenching using CNL001 (percent quench)", "setting": "[1]; 10 nM CNL001, first column so headed", "value": 71.678, "unit": "%"},
      {"measurement": "YFP fluorescence quenching using CNL001 (percent quench)", "setting": "[1]; 10 nM CNL001, second column so headed", "value": 71.881, "unit": "%"},
      {"measurement": "YFP fluorescence quenching (percent quench)", "setting": "[1]; 10 nM CNL002", "value": 59.894, "unit": "%"},
      {"measurement": "YFP fluorescence quenching using CNL001 (percent quench)", "setting": "[1]; 50 nM CNL001, first column so headed", "value": 73.807, "unit": "%"},
      {"measurement": "YFP fluorescence quenching using CNL001 (percent quench)", "setting": "[1]; 50 nM CNL001, second column so headed", "value": 75.649, "unit": "%"},
      {"measurement": "YFP fluorescence quenching (percent quench)", "setting": "[1]; 50 nM CNL002", "value": 76.501, "unit": "%"},
      {"measurement": "YFP fluorescence quenching using ABT-126 (percent quench)", "setting": "[1]; 50 nM abt (ABT-126)", "value": "−7.87", "unit": "%"},
      {"measurement": "YFP fluorescence quenching using CNL001 (percent quench)", "setting": "[1]; 100 nM CNL001, first column so headed", "value": 76, "unit": "%"},
      {"measurement": "YFP fluorescence quenching using CNL001 (percent quench)", "setting": "[1]; 100 nM CNL001, second column so headed", "value": 76.329, "unit": "%"},
      {"measurement": "YFP fluorescence quenching (percent quench)", "setting": "[1]; 100 nM CNL002", "value": 79.03, "unit": "%"},
      {"measurement": "YFP fluorescence quenching using ABT-126 (percent quench)", "setting": "[1]; 100 nM abt (ABT-126)", "value": "−5.35", "unit": "%"},
      {"measurement": "YFP fluorescence quenching using ABT-126 (percent quench)", "setting": "[1]; 300 nM abt (ABT-126)", "value": "−3.67", "unit": "%"},
      {"measurement": "YFP fluorescence quenching using CNL001 (percent quench)", "setting": "[1]; 1 uM CNL001, first column so headed", "value": 76.168, "unit": "%"},
      {"measurement": "YFP fluorescence quenching using CNL001 (percent quench)", "setting": "[1]; 1 uM CNL001, second column so headed", "value": 74.076, "unit": "%"},
      {"measurement": "YFP fluorescence quenching (percent quench)", "setting": "[1]; 1 uM CNL002", "value": 82.85, "unit": "%"},
      {"measurement": "YFP fluorescence quenching using ABT-126 (percent quench)", "setting": "[1]; 1 uM abt (ABT-126)", "value": 3.64, "unit": "%"},
      {"measurement": "YFP fluorescence quenching using ABT-126 (percent quench)", "setting": "[1]; 10 uM abt (ABT-126)", "value": 5.91, "unit": "%"},
      {"measurement": "YFP fluorescence quenching (percent quench)", "setting": "[1]; 10 uM ach (acetylcholine)", "value": "−20.07", "unit": "%"},
      {"measurement": "YFP fluorescence quenching (percent quench)", "setting": "[1]; 30 uM ach (acetylcholine)", "value": "−16.92", "unit": "%"},
      {"measurement": "YFP fluorescence quenching (percent quench)", "setting": "[1]; 100 uM ach (acetylcholine)", "value": "−25.8", "unit": "%"},
      {"measurement": "YFP fluorescence quenching (percent quench)", "setting": "[1]; 300 uM ach (acetylcholine)", "value": "−11.21", "unit": "%"},
      {"measurement": "YFP fluorescence quenching (percent quench)", "setting": "[1]; 1 mM ach (acetylcholine)", "value": 9.02, "unit": "%"},
      {"measurement": "YFP fluorescence quenching (percent quench)", "setting": "[1]; 3 mM ach (acetylcholine)", "value": 45, "unit": "%"},
      {"measurement": "YFP fluorescence quenching using Varenicline, 3 nM var", "setting": "[1]; first column", "value": "−6.169"},
      {"measurement": "YFP fluorescence quenching using Varenicline, 3 nM var", "setting": "[1]; second column", "value": "−10.445"},
      {"measurement": "YFP fluorescence quenching using Varenicline, 30 nM var", "setting": "[1]; first column", "value": "−9.679"},
      {"measurement": "YFP fluorescence quenching using Varenicline, 30 nM var", "setting": "[1]; second column", "value": "−10.878"},
      {"measurement": "YFP fluorescence quenching using Varenicline, 300 nM var", "setting": "[1]; first column", "value": "−9.572"},
      {"measurement": "YFP fluorescence quenching using Varenicline, 300 nM var", "setting": "[1]; second column", "value": "−8.873"},
      {"measurement": "YFP fluorescence quenching using Varenicline, 500 nM var", "setting": "[1]; first column", "value": "−14.656"},
      {"measurement": "YFP fluorescence quenching using Varenicline, 500 nM var", "setting": "[1]; second column", "value": "−11.304"},
      {"measurement": "YFP fluorescence quenching using Varenicline, 1 uM var", "setting": "[1]; first column", "value": "−13.996"},
      {"measurement": "YFP fluorescence quenching using Varenicline, 1 uM var", "setting": "[1]; second column", "value": "−16.128"},
      {"measurement": "Rheobase Shift Evoked; Rat Hippocampal Neurons, Baseline", "setting": "rat hippocampal neurons [2]; baseline, no ligand", "value": "40.63 ± 10.50", "unit": "pA"},
      {"measurement": "Rheobase Shift Evoked; Rat Hippocampal Neurons, +CNL002 @ EC90", "setting": "rat hippocampal neurons [2]; ligand CNL002 at EC90", "value": "296.9 ± 72.65", "unit": "pA"},
      {"measurement": "Firing Rate Spontaneous; Rat Hippocampal Neurons, Baseline", "setting": "rat hippocampal neurons [3]; baseline, no ligand", "value": "3.29 ± 0.75", "unit": "Hz"},
      {"measurement": "Firing Rate Spontaneous; Rat Hippocampal Neurons, +CNL002 @ EC90", "setting": "rat hippocampal neurons [3]; ligand CNL002 at EC90", "value": "0.71 ± 0.29", "unit": "Hz"}
    ]}
  ]
}
